Measured values published in US20180340025A1 (Novartis, published 2018).

T1: human LAG-3 expressed on cells (human, UniProt P18627 23-525)
T1 construct: whole, on cells; Treated as one protein; the host cell is named under assay; also called LAG-3-expressing CHO cells; LAG-3-transfected CHO cells
T1 sequence (looked up): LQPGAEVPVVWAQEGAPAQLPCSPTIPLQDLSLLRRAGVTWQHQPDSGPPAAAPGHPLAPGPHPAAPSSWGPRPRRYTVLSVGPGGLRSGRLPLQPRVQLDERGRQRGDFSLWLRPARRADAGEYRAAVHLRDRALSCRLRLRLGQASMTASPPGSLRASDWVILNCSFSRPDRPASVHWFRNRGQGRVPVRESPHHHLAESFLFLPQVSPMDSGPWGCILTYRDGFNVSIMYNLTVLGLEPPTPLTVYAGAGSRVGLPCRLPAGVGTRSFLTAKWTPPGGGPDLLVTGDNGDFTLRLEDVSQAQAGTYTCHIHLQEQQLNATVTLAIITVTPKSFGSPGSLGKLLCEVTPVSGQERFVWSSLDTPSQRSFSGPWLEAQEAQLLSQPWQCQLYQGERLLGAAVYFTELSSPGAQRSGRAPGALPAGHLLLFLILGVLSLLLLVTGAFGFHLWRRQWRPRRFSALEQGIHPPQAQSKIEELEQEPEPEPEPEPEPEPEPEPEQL


What was measured:
[1] = target: T1, human LAG-3 expressed on cells; experiment: rank of the clone by the competition binding data (test mAb against FITC-labeled murine BAP050 on LAG-3-expressing CHO cells), curve position relative to the chimeric mAb in two experiments
Protocol: Incubations with the mAb mixtures having different concentration ratios of test mAb to labeled mAb was at 4° C. for 30 min. […] The experiment was performed twice.
Such a ranking system was used in FIG. 6.

[2] = target: T1, human LAG-3 expressed on cells; experiment: rank of the clone among the humanized clones by the FACS binding data on LAG-3-expressing cells

Ranking, Compet. data [1]	Ranking, Binding data [2]	Binder
> 3	9	BAP050-hum14 (antibody, human IgG4 S228P, kappa, V domains shown, humanized IgG4(S228P)/kappa, transient CHO supernatant) VH: EVQLVQSGAEVKKPGATVKISCKVSGFTLTNYGMNWIRQSPSRGLEWLGWINTDTGEPTYADDFKGRFVFSLDTSVSTAYLQICSLKAEDTAVYYCARNPPYYYGTNNAEAMDYWGQGTTVTVSS VL: EIVLTQSPATLPVTLGQPASISCSSSQDISNYLNWYQQKPGQAPRLLIYYTSTLHLGVPSRFSGSGSGTDFTFTISSLEAEDAATYYCQQYYNLPWTFGQGTKVEIKR
20	20	BAP050-hum15 (antibody, human IgG4 S228P, kappa, V domains shown, humanized IgG4(S228P)/kappa, transient CHO supernatant) VH: EVQLVQSGAEVKKPGATVKISCKVSGFTLTNYGMNWIRQSPSRGLEWLGWINTDTGEPTYADDFKGRFVFSLDTSVSTAYLQICSLKAEDTAVYYCARNPPYYYGTNNAEAMDYWGQGTTVTVSS VL: EIVLTQSPDFQSVTPKEKVTITCSSSQDISNYLNWYQQKPGQAPRLLIYYTSTLHLGVPSRFSGSGSGTDFTLTISSLQPEDFATYYCQQYYNLPWTFGQGTKVEIKR
3	9	BAP050-hum20 (antibody, human IgG4 S228P, kappa, V domains shown, humanized IgG4(S228P)/kappa, transient CHO supernatant) VH: QVQLVQSGAEVKKPGASVKVSCKASGFTLTNYGMNWVRQARGQRLEWIGWINTDTGEPTYADDFKGRFVFSLDTSVSTAYLQICSLKAEDTAVYYCARNPPYYYGTNNAEAMDYWGQGTTVTVSS VL: DIVMTQTPLSLPVTPGEPASISCSSSQDISNYLNWYQQKPGQAPRLLIYYTSTLHLGIPDRFSGSGSGTDFTLTISRLEPEDFAVYYCQQYYNLPWTFGQGTKVEIKR
1	9	BAP050-hum06 (antibody, human IgG4 S228P, kappa, V domains shown, humanized IgG4(S228P)/kappa, transient CHO supernatant) VH: EVQLVQSGAEVKKPGATVKISCKVSGFTLTNYGMNWVRQAPGQGLEWMGWINTDTGEPTYADDFKGRFVFSLDTSVSTAYLQICSLKAEDTAVYYCARNPPYYYGTNNAEAMDYWGQGTTVTVSS VL: DIVMTQTPLSLPVTPGEPASISCSSSQDISNYLNWYQQKPGQAPRLLIYYTSTLHLGVPSRFSGSGSGTEFTLTISSLQPDDFATYYCQQYYNLPWTFGQGTKVEIKR
3	9	BAP050-hum13 (antibody, human IgG4 S228P, kappa, V domains shown, humanized IgG4(S228P)/kappa, transient CHO supernatant; also called humanized clone No. 13) VH: QVQLVQSGAEVKKPGASVKVSCKASGFTLTNYGMNWVRQAPGQGLEWMGWINTDTGEPTYADDFKGRFVFSLDTSVSTAYLQICSLKAEDTAVYYCARNPPYYYGTNNAEAMDYWGQGTTVTVSS VL: DIQMTQSPSSLSASVGDRVTITCSSSQDISNYLNWYQQKPGKAPKLLIYYTSTLHLGIPPRFSGSGYGTDFTLTINNIESEDAAYYFCQQYYNLPWTFGQGTKVEIKR
2	8	BAP050-hum09 (antibody, human IgG4 S228P, kappa, V domains shown, humanized IgG4(S228P)/kappa, transient CHO supernatant; also called humanized clone No. 09) VH: QVQLVQSGAEVKKPGASVKVSCKASGFTLTNYGMNWVRQARGQRLEWIGWINTDTGEPTYADDFKGRFVFSLDTSVSTAYLQICSLKAEDTAVYYCARNPPYYYGTNNAEAMDYWGQGTTVTVSS VL: DIQMTQSPSSLSASVGDRVTITCSSSQDISNYLNWYQQKPGKAPKLLIYYTSTLHLGIPPRFSGSGYGTDFTLTINNIESEDAAYYFCQQYYNLPWTFGQGTKVEIKR
2	3	BAP050-hum12 (antibody, human IgG4 S228P, kappa, V domains shown, humanized IgG4(S228P)/kappa, transient CHO supernatant; also called humanized clone No. 12) VH: QVQLVQSGAEVKKPGASVKVSCKASGFTLTNYGMNWVRQARGQRLEWIGWINTDTGEPTYADDFKGRFVFSLDTSVSTAYLQICSLKAEDTAVYYCARNPPYYYGTNNAEAMDYWGQGTTVTVSS VL: EIVLTQSPDFQSVTPKEKVTITCSSSQDISNYLNWYQQKPGQAPRLLIYYTSTLHLGVPSRFSGSGSGTDFTLTISSLQPEDFATYYCQQYYNLPWTFGQGTKVEIKR
2	9	BAP050-hum10 (antibody, human IgG4 S228P, kappa, V domains shown, humanized IgG4(S228P)/kappa, transient CHO supernatant) VH: QVQLVQSGAEVKKPGASVKVSCKASGFTLTNYGMNWVRQARGQRLEWIGWINTDTGEPTYADDFKGRFVFSLDTSVSTAYLQICSLKAEDTAVYYCARNPPYYYGTNNAEAMDYWGQGTTVTVSS VL: EIVLTQSPATLPVTLGQPASISCSSSQDISNYLNWYQQKPGQAPRLLIYYTSTLHLGVPSRFSGSGSGTDFTFTISSLEAEDAATYYCQQYYNLPWTFGQGTKVEIKR
2	2	BAP050-hum11 (antibody, human IgG4 S228P, kappa, V domains shown, humanized IgG4(S228P)/kappa, transient CHO supernatant; also called humanized clone No. 11) VH: QVQLVQSGAEVKKPGASVKVSCKASGFTLTNYGMNWVRQARGQRLEWIGWINTDTGEPTYADDFKGRFVFSLDTSVSTAYLQICSLKAEDTAVYYCARNPPYYYGTNNAEAMDYWGQGTTVTVSS VL: DIQMTQSPSSLSASVGDRVTITCSSSQDISNYLNWYLQKPGQSPQLLIYYTSTLHLGVPSRFSGSGSGTEFTLTISSLQPDDFATYYCQQYYNLPWTFGQGTKVEIKR
> 3	9	BAP050-hum17 (antibody, human IgG4 S228P, kappa, V domains shown, humanized IgG4(S228P)/kappa, transient CHO supernatant) VH: QVQLVQSGSELKKPGASVKVSCKASGFTLTNYGMNWVRQAPGQGLEWMGWINTDTGEPTYADDFKGRFVFSLDTSVSTAYLQISTLKAEDTATYFCARNPPYYYGTNNAEAMDYWGQGTTVTVSS VL: DIQMTQSPSSLSASVGDRVTITCSSSQDISNYLNWYQQKPGKAPKLLIYYTSTLHLGVPSRFSGSGSGTDFTFTISSLQPEDIATYYCQQYYNLPWTFGQGTKVEIKR
> 3	6	BAP050-hum05 (antibody, human IgG4 S228P, kappa, humanized IgG4(S228P)/kappa, transient CHO supernatant; also called humanized clone No. 05) heavy: not shown light: EIVLTQSPATLSLSPGERATLSCSSSQDISNYLNWYQQKPGKAPKLLIYYTSTLHLGVPSRFSGSGSGTDFTFTISSLEAEDAATYYCQQYYNLPWTFGQGTKVEIKRTVAAPSVFIFPPSDEQLKSGTASVVCLLNNFYPREAKVQWKVDNALQSGNSQESVTEQDSKDSTYSLSSTLTLSKADYEKHKVYACEVTHQGLSSPVTKSFNRGEC
> 3	8	BAP050-hum07 (antibody, human IgG4 S228P, kappa, V domains shown, humanized IgG4(S228P)/kappa, transient CHO supernatant) VH: EVQLVQSGAEVKKPGATVKISCKVSGFTLTNYGMNWVRQAPGQGLEWMGWINTDTGEPTYADDFKGRFVFSLDTSVSTAYLQICSLKAEDTAVYYCARNPPYYYGTNNAEAMDYWGQGTTVTVSS VL: DIQMTQSPSSLSASVGDRVTITCSSSQDISNYLNWYLQKPGQSPQLLIYYTSTLHLGVPSRFSGSGSGTEFTLTISSLQPDDFATYYCQQYYNLPWTFGQGTKVEIKR
2	8	BAP050-hum04 (antibody, human IgG4 S228P, kappa, V domains shown, humanized IgG4(S228P)/kappa, transient CHO supernatant) VH: EVQLVQSGAEVKKPGATVKISCKVSGFTLTNYGMNWVRQAPGQGLEWMGWINTDTGEPTYADDFKGRFVFSLDTSVSTAYLQICSLKAEDTAVYYCARNPPYYYGTNNAEAMDYWGQGTTVTVSS VL: DIQMTQSPSSLSASVGDRVTITCSSSQDISNYLNWYLQKPGQSPQLLIYYTSTLHLGIPDRFSGSGSGTDFTLTISRLEPEDFAVYYCQQYYNLPWTFGQGTKVEIKR
1	5	BAP050-hum02 (antibody, human IgG4 S228P, kappa, V domains shown, humanized IgG4(S228P)/kappa, transient CHO supernatant; also called humanized clone No. 02) VH: EVQLVQSGAEVKKPGATVKISCKVSGFTLTNYGMNWVRQAPGQGLEWMGWINTDTGEPTYADDFKGRFVFSLDTSVSTAYLQICSLKAEDTAVYYCARNPPYYYGTNNAEAMDYWGQGTTVTVSS VL: DIQMTQSPSSLSASVGDRVTITCSSSQDISNYLNWYQQKPGKAPKLLIYYTSTLHLGIPPRFSGSGYGTDFTLTINNIESEDAAYYFCQQYYNLPWTFGQGTKVEIKR
> 3	9	BAP050-hum19 (antibody, human IgG4 S228P, kappa, humanized IgG4(S228P)/kappa, transient CHO supernatant) heavy: not shown light: EIVLTQSPDFQSVTPKEKVTITCSSSQDISNYLNWYQQKPGQAPRLLIYYTSTLHLGVPSRFSGSGSGTDFTFTISSLEAEDAATYYCQQYYNLPWTFGQGTKVEIKRTVAAPSVFIFPPSDEQLKSGTASVVCLLNNFYPREAKVQWKVDNALQSGNSQESVTEQDSKDSTYSLSSTLTLSKADYEKHKVYACEVTHQGLSSPVTKSFNRGEC
> 3	4	BAP050-hum08 (antibody, human IgG4 S228P, kappa, humanized IgG4(S228P)/kappa, transient CHO supernatant) heavy: not shown light: EIVLTQSPDFQSVTPKEKVTITCSSSQDISNYLNWYQQKPGQAPRLLIYYTSTLHLGVPSRFSGSGSGTDFTLTISSLQPEDFATYYCQQYYNLPWTFGQGTKVEIKRTVAAPSVFIFPPSDEQLKSGTASVVCLLNNFYPREAKVQWKVDNALQSGNSQESVTEQDSKDSTYSLSSTLTLSKADYEKHKVYACEVTHQGLSSPVTKSFNRGEC
20	20	BAP050-hum16 (antibody, human IgG4 S228P, kappa, V domains shown, humanized IgG4(S228P)/kappa, transient CHO supernatant) VH: EVQLVQSGAEVKKPGESLRISCKGSGFTLTNYGMNWVRQATGQGLEWMGWINTDTGEPTYADDFKGRVTISADKSISTAYLQWSSLKASDTAMYYCARNPPYYYGTNNAEAMDYWGQGTTVTVSS VL: EIVLTQSPDFQSVTPKEKVTITCSSSQDISNYLNWYQQKPGQAPRLLIYYTSTLHLGVPSRFSGSGSGTDFTLTISSLQPEDFATYYCQQYYNLPWTFGQGTKVEIKR
1	7	BAP050-hum03 (antibody, human IgG4 S228P, kappa, humanized IgG4(S228P)/kappa, transient CHO supernatant) heavy: not shown light: EIVLTQSPATLPVTLGQPASISCSSSQDISNYLNWYQQKPGQAPRLLIYYTSTLHLGVPSRFSGSGSGTDFTFTISSLEAEDAATYYCQQYYNLPWTFGQGTKVEIKRTVAAPSVFIFPPSDEQLKSGTASVVCLLNNFYPREAKVQWKVDNALQSGNSQESVTEQDSKDSTYSLSSTLTLSKADYEKHKVYACEVTHQGLSSPVTKSFNRGEC
